The source of these data is publication PMC4888843 (Genes & Development, 2016).

What is called IC50 is the concentration needed to halve the response being measured. Read a high IC50 as a need for much substance.

The chains are these.
B5: loop-deleted human BCL-XL (Δ27–82, ΔC24) (domain or fragment)
chain: MSQSNRELVVDFLSYKLSQKGYSWSQMAAVKQALREAGDEFELRYRRAFSDLTSQLHITPGTAYQSFEQVVNELFRDGVNWGRIVAFFSFGGALCVESVDKEMQVLVSRIAAWMATYLNDHLEPWIQENGGWDTFVELYGNNAAAESRKGQER
B6: mouse Bcl-xLΔC24 (domain or fragment)
chain: MSQSNRELVVDFLSYKLSQKGYSWSQFSDVEENRTEAPEETEAERETPSAINGNPSWHLADSPAVNGATGHSSSLDAREVIPMAAVKQALREAGDEFELRYRRAFSDLTSQLHITPGTAYQSFEQVVNELFRDGVNWGRIVAFFSFGGALCVESVDKEMQVLVSRIASWMATYLNDHLEPWIQENGGWDTFVDLYGNNAAAESRKGQER

One data set has as its target human BCL-XLΔC24 (human, UniProt Q07817-1 1-209). Put plainly: ELISA. Background: In an ELISA, binding on a coated surface is turned into a signal by an enzyme label.
For data set [1], the target named is B5. Put plainly: crystal structure.
The data set “crystal structure” deals with the molecule itself. Put plainly: crystal structure.
For data set [2], the target named is BIM BH3 synthetic peptide. Put plainly: SPR. (SPR reads the build-up and loss of mass on a sensor chip optically.)
The data set “mouse Bcl-xLΔC24” addresses B6. The data set is described as follows: SPR.
A further data set deals with mouse Bcl-xL Y101FΔC24 (mouse, UniProt Q64373-1 1-209, Y101F).
The target in data set [3] is mouse Bcl-xL Y101F/Q111AΔC24 (mouse, UniProt Q64373-1 1-209, Y101F | Q111A).

Some results are limits rather than exact numbers.

B1: phage-displayed human BAK BH3 peptide G82E (peptide)
peptide: PSSTMGQVGRQLAIIEDDINRRYDSE
As for B1, the IC50 in the data set with human BCL-XLΔC24 is more than 10 µM.

B2: phage-displayed human BAK BH3 peptide Q77A (peptide)
peptide: PSSTMGQVGRALAIIGDDINRRYDSE
As to B2, in the data set with human BCL-XLΔC24, the “fold reduction in binding against wild-type BAK BH3 (from IC50)” value is 8 fold.

B3: phage-displayed human BAK BH3 peptide R76A (peptide)
peptide: PSSTMGQVGAQLAIIGDDINRRYDSE
Turning to B3, the “fold reduction in binding against wild-type BAK BH3 (from IC50)” value with human BCL-XLΔC24 stood at 4 fold.

B4: hBAK BH3 synthetic peptide (peptide)
peptide: LPLQPSSTMGQVGRQLAIIGDDINRRYDSEFQTM
In the case of B4, the binding result in data set [1] is given as “binds”. B5: the binding result in “crystal structure” is reported as “binds”.

For B6, the binding result in data set [2] is recorded as “binds”.

B7: mBak Q75L BH3 synthetic peptide (peptide)
peptide: LPLEPNSILGQVGRLLALIGDDINRRYDTEFQNL
For the molecule B7, in data set [1], the binding result was “binds”. Moreover, the “fold weaker binding than wild-type Bak BH3” value in the data set with mouse Bcl-xLΔC24 is approximately 7 fold.

B8: mBak BH3 synthetic peptide (peptide)
peptide: LPLEPNSILGQVGRQLALIGDDINRRYDTEFQNL
In the case of B8, the “fold weaker binding than wild-type Bcl-xL” value (in the data set with mouse Bcl-xL Y101FΔC24; in data set [3]) was approximately 3.5 fold throughout.
